{
  "source": "paper PMC6778148",
  "about": "(Nature Communications, 2019)",
  "binders": {"B1": {"name": "biotinylated Xph18 [S63K]-(GGS)12-ETWV, from pbIG (designed binder)", "chain": "SSVSSVPTKLEVVAATPTSLLISWDAHSRMAWVNYYRITYGETGGNSPVQEFTVPGSSSTATISGLKPGVDYTITVYANGGGFRRGMAPISINYRTLEGGSGGSGGSGGSGGSGGSGGSGGSGGSGGSGGSGGSGTETWV", "modifications": "biotin on the AviTag (BirA)"}, "B2": {"name": "biotinylated Xph15 [S63K]-(GGS)12-ETWV, from pbIG (designed binder)", "chain": "SSVSSVPTKLEVVAATPTSLLISWDAGPRNVSYYRITYGETGGNSPVQEFTVPGSSSTATISGLKPGVDYTITVYASGHVSTLMTPISINYRTLEGGSGGSGGSGGSGGSGGSGGSGGSGGSGGSGGSGGSGTETWV", "modifications": "biotin on the AviTag (BirA)"}, "B3": {"name": "biotinylated Xph20 [S63K]-(GGS)12-ETWV, from pbIG (designed binder)", "chain": "SSVSSVPTKLEVVAATPTSLLISWDAVAKNVKVGYYRITYGETGGNSPVQEFTVPGSSSTATISGLKPGVDYTITVYANGVLSKMVLPISINYRTLEGGSGGSGGSGGSGGSGGSGGSGGSGGSGGSGGSGGSGTETWV", "modifications": "biotin on the AviTag (BirA)", "notes": "also called Xph20-ETWV; not shown: AviTag (biotin acceptor peptide), N-terminal, kept"}, "B4": {"name": "Xph20 [S63K]-(GGS)12-ETWV with N-terminal His10, from pET-IG (designed binder)", "chain": "B3 chain", "notes": "also called Xph20-ETWV; pIG-Xph20-ETWV; not shown: His10, N-terminal, kept"}, "B5": {"name": "SAP102 tandem PDZ domains 1 and 2 (SAP102-12), from pET-NO (domain or fragment, rat)", "chain": "FKYEEIVLERGNSGLGFSIAGGIDNPHVPDDPGIFITKIIPGGAAAMDGRLGVNDCVLRVNEVDVSEVVHSRAVEALKEAGPVVRLVVRRRQPPPETIMEVNLLKGPKGLGFSIAGGIGNQHIPGDNSIYITKIIEGGAAQKDGRLQIGDRLLAVNNTNLQDVRHEEAVASLKNTSDMVYLKVAKPGSL", "notes": "first two PDZ domains of rat SAP102, residues 145-333; also called NO-SAP102-12"}, "B6": {"name": "PSD-95 PDZ domain 2 (PSD-95-2), as used for fluorescence polarisation (domain or fragment, rat)", "chain": "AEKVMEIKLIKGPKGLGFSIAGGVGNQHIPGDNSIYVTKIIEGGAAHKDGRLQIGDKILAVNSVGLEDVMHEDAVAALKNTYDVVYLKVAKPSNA", "notes": "also called PSD-95 second PDZ domain; source: E. coli, purified"}},
  "conditions_in_all_cases": "both partners purified",
  "key": {"[1]": {"target": "T1, PSD-93 tandem PDZ domains 1 and 2 (PSD-93-12), from pET-NO (rat)", "T1 construct": "first two PDZ domains of rat PSD-93, residues 93-282; also called NO-PSD-93-12", "T1 sequence (chain, as listed by the source)": "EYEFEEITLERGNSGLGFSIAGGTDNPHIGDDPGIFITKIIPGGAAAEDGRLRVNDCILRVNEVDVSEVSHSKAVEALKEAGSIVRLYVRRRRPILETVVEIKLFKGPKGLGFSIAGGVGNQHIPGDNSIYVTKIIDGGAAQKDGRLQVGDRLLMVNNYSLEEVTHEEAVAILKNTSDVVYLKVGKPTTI", "test": "SPR; Biacore T200, single cycle kinetics at higher analyte concentrations (up to 35 µM); biotinylated Xph15/18/20-ETWV captured (ligand), tandem PDZ domains as analyte; steady state analysis, one site binding (hyperbola)"}, "[2]": {"target": "T2, PSD-95 tandem PDZ domains 1 and 2 (PSD-95-12), from pET-NO (rat)", "T2 construct": "first two PDZ domains of rat PSD-95, residues 61-249; also called NO-PSD-95-12; not shown: His8, N-terminal, kept", "test": "SPR; Biacore T200, single cycle kinetics; biotinylated Xph-motif fusion captured on a CAP chip (ligand), tandem PDZ domains as analyte; 25 °C; PBS with 500 mM NaCl pH 7.4, 0.1% Tween 20; global 1:1 fit (kinetics analysis)"}, "[3]": {"target": "T2, PSD-95 tandem PDZ domains 1 and 2 …", "test": "pull-down; competitive pull-down: streptavidin beads with 120 pmol biotinylated [Stg15]2, 180 pmol tandem PDZ domains, then 0-50 (100) equivalents of Xph20-ETWV or Xph0-ETWV; PBS with 500 mM NaCl pH 7.4, Tween 20, 0.5% BSA; SDS-PAGE, colloidal blue, densitometry; One site - Fit Ki"}, "[4]": {"target": "T3, SAP97 tandem PDZ domains 1 and 2 (SAP97-12), from pET-NO (rat)", "T3 construct": "first two PDZ domains of rat SAP97, residues 220-408; also called NO-SAP97-12; not shown: His8, N-terminal, kept", "test": "pull-down; competitive pull-down: streptavidin beads with 120 pmol biotinylated [Stg15]2, 180 pmol tandem PDZ domains, then 0-50 (100) equivalents of Xph20-ETWV or Xph0-ETWV; PBS with 500 mM NaCl pH 7.4, Tween 20, 0.5% BSA; SDS-PAGE, colloidal blue, densitometry; One site - Fit Ki"}, "[5]": {"target": "T1, PSD-93 tandem PDZ domains 1 and 2 …", "test": "pull-down; competitive pull-down: streptavidin beads with 120 pmol biotinylated [Stg15]2, 180 pmol tandem PDZ domains, then 0-50 (100) equivalents of Xph20-ETWV or Xph0-ETWV; PBS with 500 mM NaCl pH 7.4, Tween 20, 0.5% BSA; SDS-PAGE, colloidal blue, densitometry; One site - Fit Ki"}, "[6]": {"target": "B5", "test": "pull-down; competitive pull-down: streptavidin beads with 120 pmol biotinylated [Stg15]2, 180 pmol tandem PDZ domains, then 0-50 (100) equivalents of Xph20-ETWV or Xph0-ETWV; PBS with 500 mM NaCl pH 7.4, Tween 20, 0.5% BSA; SDS-PAGE, colloidal blue, densitometry; One site - Fit Ki"}, "[7]": {"target": "B6", "test": "fluorescence polarisation; competitive titration: ETWV or stargazin monovalent peptide against the complex of 50 nM FITC monovalent stargazin peptide with 24 µM PSD-95-2"}, "[8]": {"target": "B6", "test": "fluorescence polarisation; competitive titration: ETWV or stargazin monovalent peptide against the complex of 50 nM FITC monovalent stargazin peptide with 24 µM PSD-95-2"}, "[9]": {"target": "B3", "test": "SPR; Biacore T200, single cycle kinetics at higher analyte concentrations (up to 35 µM); biotinylated Xph15/18/20-ETWV captured (ligand), tandem PDZ domains as analyte; steady state analysis, one site binding (hyperbola)"}, "[10]": {"target": "B2", "test": "SPR; Biacore T200, single cycle kinetics at higher analyte concentrations (up to 35 µM); biotinylated Xph15/18/20-ETWV captured (ligand), tandem PDZ domains as analyte; steady state analysis, one site binding (hyperbola)"}, "[11]": {"target": "B1", "test": "SPR; Biacore T200, single cycle kinetics at higher analyte concentrations (up to 35 µM); biotinylated Xph15/18/20-ETWV captured (ligand), tandem PDZ domains as analyte; steady state analysis, one site binding (hyperbola)"}, "[12]": {"target": "T4, fluorescein-labelled monovalent stargazin peptide", "T4 chain": "{FITC′-TTDS}-DSLHANTANRRTTPV", "test": "fluorescence polarisation; direct titration: 50 nM fluorescein-labelled stargazin ligand (divalent or monovalent) against increasing concentrations of PDZ domains; apparent KD"}},
  "note": "Primed or numbered codes have the meaning given here. Ends that are not written are not given here. FITC′ = fluorescein isothiocyanate label; TTDS = PEG linker",
  "data": [
    {"binder": "B1", "values": [
      {"measurement": "Kd", "setting": "[1]", "value": 3.2, "unit": "µM"}
    ]},
    {"binder": "B2", "values": [
      {"measurement": "Kd", "setting": "[1]", "value": 8.4, "unit": "µM"}
    ]},
    {"binder": "B3", "values": [
      {"measurement": "Kd", "setting": "[1]", "value": 7.5, "unit": "µM"},
      {"measurement": "Kd", "setting": "[2]", "value": 0.089, "unit": "nM"},
      {"measurement": "koff", "setting": "[2]", "value": 0.00052, "unit": "s⁻¹"},
      {"measurement": "kon", "setting": "[2]", "value": "8.7e+06", "unit": "M⁻¹ s⁻¹"}
    ]},
    {"binder": "B4", "values": [
      {"measurement": "Ki", "setting": "[3]", "value": 0.0365, "unit": "µM"},
      {"measurement": "Ki", "setting": "[4]", "value": 0.901, "unit": "µM"},
      {"measurement": "Ki", "setting": "[5]", "value": 0.261, "unit": "µM"},
      {"measurement": "Ki", "setting": "[6]", "value": 1.44, "unit": "µM"}
    ]},
    {"binder": "Ac-DSLHANTANRRTTPV", "note": "[acetylated monovalent stargazin peptide]", "values": [
      {"measurement": "Ki", "setting": "[7]", "value": 8.8, "unit": "µM"},
      {"measurement": "Ki", "setting": "[8]", "value": 8.6, "unit": "µM"}
    ]},
    {"binder": "B5", "values": [
      {"measurement": "Kd", "setting": "[9]", "value": 9.9, "unit": "µM"},
      {"measurement": "Kd", "setting": "[10]", "value": 9.8, "unit": "µM"},
      {"measurement": "Kd", "setting": "[11]", "value": 4.2, "unit": "µM"}
    ]},
    {"binder": "B6", "values": [
      {"measurement": "Kd", "setting": "[12]", "value": 16, "unit": "µM"}
    ]}
  ]
}
